Source: patent US20230212319A1, “NOVEL ANTIGEN BINDING DOMAINS AND SYNTHETIC ANTIGEN RECEPTORS INCORPORATING THE SAME” (University of Southern California, priority 2020, published 2023)

Tests used:
Type in all cases: cell-based
RAJI cells = experiment: JNG assay, co-culture with RAJI cells
In short: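 Jurkat-NFAT-GFP (JNG) cells stably expressing SAR constructs via lentiviral transduction and puromycin/blasticidin selection were cocultured with target cells at E:T ~1:2 for ~4–18 h. NFAT-driven GFP was measured by FACS versus parental JNG cells; scores +/- to 5+ denote ~5–50% GFP-positive cells.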

RS;411 = experiment: JNG assay, co-culture with RS;411 cells; details: for NFAT-GFP ASSAY: RS411: co-culture with RS411
Description: Cellular supernatant is collected and assayed for the induction of cytokines (e.g., IL2).
JNG (Jurkat cells expressing EGFP under an NFAT promoter) were infected with lentiviral vectors encoding different single chain and multi-chain SARs by spinfection in the presence of 8 µg/ml of Polybrene® (Sigma, Catalog no. H9268). The Jurkat-NFAT-GFP cells are engineered in such a way that the IL-2 promoter, which carries NFAT binding sites, is cloned upstream of the GFP gene. These cells have been used to study signaling via TCR and CAR. The different SARs were stably expressed in Jurkat NFAT-GFP cells by lentiviral mediated gene transfer, followed by selection with puromycin or blasticidin. No drug selection was used in case the construct lacked an antibiotic resistance gene. The SAR-expressing Jurkat-NFAT-GFP cells were cocultured with the target cells at E:T ratio of approximately 1:2 for approximately 4 hours to 18 hours. When the interaction between SIRs and their target antigen results in activation of the NFAT pathway, GFP expression is induced. […] GFP expression was monitored by FACS analysis. The Jurkat-NFAT-GFP (parental) cells were used as control. The structure of different constructs can be determined based on their names. […] The sequence of the other constructs in the table can be similarly determined from their names and by referring to the different Tables of this disclosure that provide the names and SEQ ID NO of the different modules. Alternatively, the composition and modular architecture of the different SAR constructs can be determined from their sequences by bioinformatics tools, including using nucleic acid and amino acids homology searches. A SAR is considered positive in the assay in case the SAR expressing Jurkat-NFAT-GFP cells show greater % GFP positive cells when cultured with the target cell line as compared to parental Jurkat-NFAT-GFP cells. […] In general, the number +/-, +, 2+, 3+, 4+, 5+ refer to approximately 5%, 10%, 20%, 30%, 40% and 50% GFP positive cells. The % of GFP induction in the above assay is dependent not only the relative strength of the SAR but also, among other factors, on the relative level of expression of the SAR in the JNG cells and the relative level of expression of the target antigen in the target cell line. To control for the difference in gene transduction efficiency of the different SAR constructs, the experiment was conducted with JNG cells transduced with SAR constructs co-expressing a drug resistance gene (e.g., puromycin or PAC) followed by drug selection to generate a stable population of SAR-expressing cells. It is to be noted that the drug resistance gene (e.g., PAC) in the SAR constructs is optional and in vivo studies were conducted with SAR constructs lacking the PAC gene.

Nalm6 cells = experiment: JNG assay, co-culture with Nalm6 cells; details: for NFAT-GFP ASSAY: Nalm6: co-culture with Nalm6
In short: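 Jurkat NFAT-GFP reporter cells stably expressing lentivirally delivered SARs (puromycin or blasticidin selection) were cocultured with target cells at E:T ~1:2 for ~4–18 h. GFP was read by FACS, and % GFP+ cells were scored against parental reporter cells (+/-, +, 2+…5+ ≈ 5%, 10%, 20%…50%).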

| Molecule | GFP induction / activity (RAJI cells; co-culture with RAJI cells) | GFP induction / activity (RS;411; co-culture with RS;411 cells) | GFP induction / activity (Nalm6 cells; co-culture with Nalm6 cells) | NFAT-GFP ASSAY: RS411 (RS;411) | NFAT-GFP ASSAY: Nalm6 (Nalm6 cells) | NFAT-GFP ASSAY: Raji (RAJI cells; JNG cells expressing construct, co-culture with Raji) |
| --- | --- | --- | --- | --- | --- | --- |
| SEQ ID NO: 22162: bispecific SAR construct targeting CD19 and PD1 (protein) MALPVTALLLPLALLLHAARPDIQMTQSPSSLSASVGDRVTITCKASDHINNWLAWYQQKPGQAPKLLIYGATTLETGVPSRFSGSGSGTDYTLTISSLQPEDFATYYCQQSWNTPWTFGQGTKLEIKRLEDLKNVFPPEVAVFEPSEAEISHTQKATLVCLATGFYPDHVELSWWVNGKEVHSGVCTDPQPLKEQPALNDSRYCLSSRLRVSATFWQNPRNHFRCQVQFYGLSENDEWTQDRAKPVTQIVSAEAWGRADCGFTSESYQQGVLSATILYEILLGKATLYAVLVSALVLMAMVKRKDSRGRAKRSGSGATNFSLLKQAGDVEENPGPTSATMDWIWRILFLVGAATGAHSGPEVQLLESGGGLVQPGGSLRLSCAASGSIASIHAMGWFRQAPGKEREFVAVITWSGGITYYADSVKGRFTISRDNSKNTVYLQMNSLRPEDTALYYCAGDKHQSSWYDYWGQGTLVTVSSGSGGGGSGGGGSGGGGSFEQVQLQQPGAELVKPGASVKMSCKASGYAFSSYWINWMKQKPGQGLEWIGQIYPGDGDTNYNGKFKGRATLTADTSSSTAYMQLSSLTSEDSAVYFCARSITTVVGCAMDYWGQGTSVTVSSTRIQNPDPAVYQLRDSKSSDKSVCLFTDFDSQTNVSQSKDSDVYITDKCVLDMRSMDFKSNSAVAWSNKSDFACANAFNNSIIPEDTFFPSPESSCDVKLVEKSFETDTNLNFQNLSVIGFRILLLKVAGFNLLMTLRLWSSRAKRSGSGVKQTLNFDLLKLAGDVESNPGPSRGHMTEYKPTVRLATRDDVPRAVRTLAAAFADYPATRHTVDPDRHIERVTELQELFLTRVGLDIGKVWVADDGAAVAVWTTPESVEAGAVFAEIGPRMAELSGSRLAAQQQMEGLLAPHRPKEPAWFLATVGVSPDHQGKGLGSAVVLPGVEAAERAGVPAFLETSAPRNLPFYERLGFTVTADVEVPEGPRTWCMTRKPGA | robust activity | robust activity | robust activity |  |  |  |
| 22124 (protein) MALPVTALLLPLALLLHAARPEVQLVESGGGLVQAGGSLRLSCAASGRTFSMGWFRQAPGKEREFVAAITYSGGSPYYADSVKGRFTISRDNAKNTVYLQMNSLKPEDTAVYYCAANPTYGSDWNAENWGQGTQVTVSSGGGGSGGGGSQLQLQESGPGLVKPSETLSLTCTVSGGSISSGDYYWGWIRQPPGKGLEWIGSISYSGSTYYNPSLKSRVTISVDTSRNQFSLKLSSVTAADTAVYYCTREDSSNWRSRGQGTLVTVSSGTGGGGSGGGGSGGGGSEFDIQMTQSPSSLSASVGDRVTITCKASDHINNWLAWYQQKPGQAPKLLIYGATTLETGVPSRFSGSGSGTDYTLTISSLQPEDFATYYCQQSWNTPWTFGQGTKLEIKRLEIQNPDPAVYQLRDSKSSDKSVCLFTDFDSQTNVSQSKDSDVYITDKCVLDMRSMDFKSNSAVAWSNKSDFACANAFNNSIIPEDTFFPSSDVPCDVKLVEKSFETDTNLNFQNLSVIGFRILLLKVAGFNLLMTLRLWSSRAKRSGSGVKQTLNFDLLKLAGDVESNPGPTSATMDWIWRILFLVGAATGAHSGPQVQLQESGGGLAQAGGSLRLSCAASGRTFSMGWFRQAPGKEREFVAAITYSGGSPYYASSVRGRFTISRDNAKNTVYLQMNSLKPEDTAVYYCAANPTYGSDWNAENWGQGTQVTVSSGSGGGGSGGGGSGGGGSFEQVQLQQPGAELVKPGASVKMSCKASGYAFSSYWINWMKQKPGQGLEWIGQIYPGDGDTNYNGKFKGRATLTADTSSSTAYMQLSSLTSEDSAVYFCARSITTVVGCAMDYWGQGTSVTVSSTREDLKNVFPPEVAVFEPSKAEIAHTQKATLVCLATGFYPDHVELSWWVNGKEVHSGVCTDPQPLKEQPALNDSRYCLSSRLRVSATFWQNPRNHFRCQVQFYGLSENDEWTQDRAKPVTQIVSAEAWGRADCGITSASYHQGVLSATILYEILLGKATLYAVLVSALVLMAMVKRKDSRGRAKRSGSGATNFSLLKQAGDVEENPGPSRGHMTEYKPTVRLATRDDVPRAVRTLAAAFADYPATRHTVDPDRHIERVTELQELFLTRVGLDIGKVWVADDGAAVAVWTTPESVEAGAVFAEIGPRMAELSGSRLAAQQQMEGLLAPHRPKEPAWFLATVGVSPDHQGKGLGSAVVLPGVEAAERAGVPAFLETSAPRNLPFYERLGFTVTADVEVPEGPRTWCMTRKPGA |  |  |  | 2+ (refer to approximately 5%, 10%, 20%, 30%, 40% and 50% GFP positive cells) | 2+ (refer to approximately 5%, 10%, 20%, 30%, 40% and 50% GFP positive cells) |  |
| 22126 (protein) MALPVTALLLPLALLLHAARPEVQLVESGGGLVQPGGSLRLSCAASGFSFSDFWMSWVRQAPGKGLEWVATISQAGSEKDYVDSVKGRFTISRDNAKKSLYLQMNSLRAEDTAVYYCASGVYSFDYRGQGTLVTVSSGTGGGGSGGGGSGGGGSEFDIQMTQSPSSLSASVGDRVTITCKASDHINNWLAWYQQKPGQAPKLLIYGATTLETGVPSRFSGSGSGTDYTLTISSLQPEDFATYYCQQSWNTPWTFGQGTKLEIKRLEDLKNVFPPEVAVFEPSKAEIAHTQKATLVCLATGFYPDHVELSWWVNGKEVHSGVCTDPQPLKEQPALNDSRYCLSSRLRVSATFWQNPRNHFRCQVQFYGLSENDEWTQDRAKPVTQIVSAEAWGRADCGITSASYHQGVLSATILYEILLGKATLYAVLVSALVLMAMVKRKDSRGRAKRSGSGATNFSLLKQAGDVEENPGPTSATMDWIWRILFLVGAATGAHSGPQVQLQESGGGLAQAGGSLRLSCAASGRTFSMGWFRQAPGKEREFVAAITYSGGSPYYASSVRGRFTISRDNAKNTVYLQMNSLKPEDTAVYYCAANPTYGSDWNAENWGQGTQVTVSSGSGGGGSGGGGSGGGGSFEQVQLQQPGAELVKPGASVKMSCKASGYAFSSYWINWMKQKPGQGLEWIGQIYPGDGDTNYNGKFKGRATLTADTSSSTAYMQLSSLTSEDSAVYFCARSITTVVGCAMDYWGQGTSVTVSSTRIQNPDPAVYQLRDSKSSDKSVCLFTDFDSQTNVSQSKDSDVYITDKCVLDMRSMDFKSNSAVAWSNKSDFACANAFNNSIIPEDTFFPSSDVPCDVKLVEKSFETDTNLNFQNLSVIGFRILLLKVAGFNLLMTLRLWSSRAKRSGSGVKQTLNFDLLKLAGDVESNPGPSRGHMTEYKPTVRLATRDDVPRAVRTLAAAFADYPATRHTVDPDRHIERVTELQELFLTRVGLDIGKVWVADDGAAVAVWTTPESVEAGAVFAEIGPRMAELSGSRLAAQQQMEGLLAPHRPKEPAWFLATVGVSPDHQGKGLGSAVVLPGVEAAERAGVPAFLETSAPRNLPFYERLGFTVTADVEVPEGPRTWCMTRKPGA |  |  |  | +/- (refer to approximately 5%, 10%, 20%, 30%, 40% and 50% GFP positive cells) | 5+ (refer to approximately 5%, 10%, 20%, 30%, 40% and 50% GFP positive cells) | 5+ (refer to approximately 5%, 10%, 20%, 30%, 40% and 50% GFP positive cells) |
